Assay results taken from US20230416394A1.

Columns and labels:
[1] = target: human CD39 protein (Octet assays) (human); test: Octet, antibody on sensor, CD39 gradient
[2] = target: 6×His tagged human CD39 (human); test: Biacore, antibody captured, 6×His human CD39 as analyte, 1:1 model
Chain of 6×His tagged human CD39 (human) (P49961 38-478): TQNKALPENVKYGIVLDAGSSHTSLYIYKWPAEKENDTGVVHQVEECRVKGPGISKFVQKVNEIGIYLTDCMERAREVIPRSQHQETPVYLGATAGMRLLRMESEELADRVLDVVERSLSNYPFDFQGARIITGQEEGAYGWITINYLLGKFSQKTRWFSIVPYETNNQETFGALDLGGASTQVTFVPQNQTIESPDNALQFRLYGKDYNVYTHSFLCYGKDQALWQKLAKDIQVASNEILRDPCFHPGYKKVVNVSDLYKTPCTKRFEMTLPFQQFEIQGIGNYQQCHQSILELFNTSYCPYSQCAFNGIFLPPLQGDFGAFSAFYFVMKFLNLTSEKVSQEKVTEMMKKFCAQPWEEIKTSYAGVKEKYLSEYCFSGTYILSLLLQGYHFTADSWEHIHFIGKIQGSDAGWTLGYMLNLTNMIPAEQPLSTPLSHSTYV

Chain of human CD39 protein (Octet assays) (human) (P49961 38-478): as above

B1: hu23.H5L5 (antibody, from a related filing, V domains shown)
VH: QVQLVQSGAEVKKPGASVKVSCKASGYNLKDTFLHWVRQAPGQGLEWMGRIDPANGNIKYDPKFQGRVTITADTSANTAYMELISLRSEDTAVYYCANSPYYYGSGYRIFDVWGQGTTVTVSS
VL: QIVLTQSPATLSLSPGERATLSCSAFSSVNYMHWYQQKPGQAPRLLIYTTSNLASGIPTRFSGSGSGTSYTLTISSLEPEDFAVYYCQQRSTYPFTFGQGTKLEIK
B1 showed a Kd [1] of 0.687 nM, a koff [1] of 9.36e-05 s⁻¹ and a kon [1] of 136000 M⁻¹ s⁻¹. The Kd [2] was 19.5 nM, the koff [2] was 0.0016 s⁻¹ and the kon [2] was 82200 M⁻¹ s⁻¹.
